According to patent US20210340232A1, “MONOCLONAL ANTIBODIES AGAINST HUMAN DICKKOPF3 AND USES THEREOF” (Board of Regents, The University of Texas System, priority 2018, published 2021):

Legend:
KPC model of PDAC = experiment: Survival of KPC mice (P48-Cre; Kras LSL-G12D;Trp53fl/fl) with wild type DKK3; format: in vivo, mouse
Experimental: HPSCs and BxPC3 cells were treated with DKK3 mAb clones JM6-6-1 and JM8-12-1 or isotype control mAb or PBS. (FIGS. 5A-B) HPSC apoptosis and migration as measured by FACS and Transwell migration assay at 48 hours. (FIG. 5C) BxPC3 migration in response to rhDKK3 10 μg/ml as measured by Transwell migration assay at 48 hours. (FIG. 5D) BxPC3 resistance to gemcitabine 100 μM as measured by MTS proliferation assay at 6 days. HPSC-CM, pancreatic stellate cell conditioned media, 10 μg/ml. The orthotopic co-injection BxPC3+ HPSC model of PDAC was used to test the efficacy of DKK3 mAb clones JM6-6-1 or JM8-12-1 (5 mg/kg i.p. once every 5 days). (FIG. 5E) Overall tumor progression was measured every 3-4 days by IVIS imaging. (FIG. 5F) Metastatic tumors in the peritoneal cavity after removal of the primary pancreatic tumor are shown by IVIS imaging. (FIG. 5G) Kaplan Meier survival curve showing mice treated with DKK3 mAb clone JM8-12 (right-most line), control mAb (middle line), or PBS (left-most line). (FIG. 5H) KPC mice (P48-Cre; Kras LSL-G12D;Trp53fl/fl) with either wild type DKK3 (solid lines) or deficient in DKK3 (“DKK3-KO,” dashed lines) were treated with DKK3 mAb JM6-6-1 (5 mg/kg i.p. once every 5 days), PBS or control mAb. Kaplan Meier survival curve is shown with hazard ratios (Log-rank test). *p<0.05, **p<0.01, ***p<0.001, ****p<0.0001 vs. control Ab.
Two GEMMs of PDAC that differ in the pancreas-specific promoter to target oncogenic Kras expression (Hingorani et al., 2005; Hingorani et al., 2003) were used in the experiments to evaluate the effect of DKK3 neutralizing mAb (Pdx1-Cre; Kras^LSL-G12D; Trp53^R172H/+ and P48-Cre; Kras^LSL-G12D; Trp53^fl/fl). To evaluate the effects of genetic ablation of DKK3 on pancreatic cancer development, DKK3-null mice were crossed to P48-Cre; Kras^LSL-G12D;Trp53^R172H or P48-Cre; Kras^LSL-G12D; Trp53^fl/fl mice (Hingorani et al., 2005; Hingorani et al., 2003), and the progeny were monitored until they were moribund. Tissue and blood samples were collected after the mice were euthanized. […]

KPC cells = experiment: Syngeneic orthotopic model with luciferase-labeled KPC cells in C57/BL6 mice; format: in vivo, mouse
Experimental: FIGS. 6A-F. DKK3 blockade is associated with increased tumor immune infiltrates and improves response to checkpoint inhibitor therapy. (FIG. 6A) T cells were stimulated, treated with DKK3 (5-10 μg/mL) and proliferation was measured by CFSE assay. In a syngeneic orthotopic model with luciferase-labeled KPC cells, tumors were examined for CD3 and CD8 expression by IHC (FIG. 6B) and additional markers of T cell activity were measured by quantitative PCR (FIG. 6C). Mice in this model were treated with either control IgG, DKK3 mAb JM6-6-1, αCTLA4 or the combination JM6-6-1+αCTLA4 and tumor growth was measured by IVIS imaging to 25 and 190 days (FIG. 6D). Survival in this orthotopic implantation model is shown in (FIG. 6E). Using a GEMM (FIG. 6F), KPC/DKK3^+/+ (black line) or KPC/DKK3^−/− (blue line) mice were treated with αCTLA4 or control IgG and the Kaplan Meier survival curve is shown. *p<0.05, **p<0.01, ***p<0.001.
An orthotopic nude mouse model of PDAC using BxPC3 cancer cells labeled with firefly luciferase (BxPC3-FL) co-injected with HPSCs has been previously described (Hwang et al., 2008). Mice received intrapancreatic injections of BxPC3-FL (1×10^6 per mouse) with HPSC-shControl or HPSC-shDKK3 in a tumor-to-stroma ratio of 1:0 or 1:3 in 50-μL of HBSS and tumor growth was monitored using IVIS imaging (Hwang et al., 2008). In addition, a syngeneic immunocompetent DKK3 null model was used, provided by Dr. C. Niehrs (Barrantes Idel et al., 2006), that was injected with murine PDAC cells (termed “KPC cells”) isolated from tumors arising in a GEMM of PDAC (Pdx1-Cre; Kras^LSL-G12D;Trp53^R172H/+) (Hingorani et al., 2005; Hingorani et al., 2003) and labeled with luciferase.
In order to determine whether manipulation of DKK3 can affect the response to checkpoint inhibitors, mice in the syngeneic orthotopic C57/BL6 model were treated with either isotype control IgG, DKK3 mAb JM6-6-1, α-CTLA4 or the combination of JM6-6-1 with α-CTLA4. […] With additional follow-up to day 200 (FIG. 6D, right), tumors in all groups continued to grow albeit at a slower rate in the JM6-6-1 and combination JM6-6-1+α-CTLA4 groups (FIG. 6D). […] Combination treatment JM6-6-1+α-CTLA4 was associated with a highly significant improvement in survival (p=0.004) and median survival was not reached in this group (FIG. 6E). […] In the combination treatment group, 80% of mice were alive and appeared healthy at 800 days and were electively sacrificed. In the JM6-6-1 group, 20% of mice were still alive at 726 days when they were electively sacrificed.

[1] = JM6-6-1 5 mg/kg i.p. once every 5 days

B1: JM6-6-1: monoclonal antibody against human DKK3; heavy chain variable SEQ ID NO: 19, light chain variable SEQ ID NO: 20 (antibody, V domains shown)
VH: EVKLVESGGGLVKPGGSLKLSCAASGFTFTIEYMAWIRQTPEKRLEWVASISSGGDDIYYADNVKGRFTISRDNAKNTLYLQMSSLKSEDTAIYYCSRSLSDWGQGTTLTVSSAKTTPPSDYPLA
VL: MTQTPLSLPVSLGDQASISCRSSQSILHSNGHTYLEWYLQKPGQSPKLLIYKVSNRFSGVPDRFSGSGSGTDFTLKISRVEAEDLGVYYCFQGSHVPFTFGSGTKLEIERADAAQ
hazard ratio (HR) compared to PBS or isotype control mAb (KPC model of PDAC; [1]): 0.24
increase of median survival compared to PBS or isotype control mAb (KPC model of PDAC; [1]): 43%
median survival (KPC model of PDAC; KPC mice with wild type DKK3): 61.5 days
mice alive at 726 days (KPC cells; 726 days): 20%
gross tumors in pancreata of remaining mice (KPC cells; at elective sacrifice): no gross tumors were identified
tumor growth by luciferase signal (KPC cells; compared to control IgG): growth inhibition at 22 days and onward
median survival (KPC cells; syngeneic orthotopic C57/BL6 model): 75 days
